Assay [1] concerns the target AfTrax D114A catalytic mutant (Archaeoglobus fulgidus). Put plainly: crystal structure.
Assay [2] addresses AfTrax (Archaeoglobus fulgidus Trax homologue, AF2260), wild type (Archaeoglobus fulgidus). Put plainly: crystal structure.
Assay [3] shares this target. Put plainly: SEC.

The stoichiometry N is the number of molecules, sites or subunits per partner or assembly.

“AfTrax D114A catalytic mutant (natural protein)” returned a stoichiometry N in assay [1] of 8. Turning to “AfTrax (Archaeoglobus fulgidus Trax homologue, AF2260), wild type (natural protein)”, the stoichiometry N in assay [2] and in assay [3] was 8 each time.

These data come from publication PMC3597040.
